What all share (assay): SPR Biacore T100, 37 C, antibody captured by anti-mouse IgG, antigen in solution
For assay [1], the target named is T1, 6xHis tagged recombinant human GDF15 (His-rhGDF15) (human, UniProt Q99988 197-308).
T1 construct: Bought from R&D Systems
T1 sequence: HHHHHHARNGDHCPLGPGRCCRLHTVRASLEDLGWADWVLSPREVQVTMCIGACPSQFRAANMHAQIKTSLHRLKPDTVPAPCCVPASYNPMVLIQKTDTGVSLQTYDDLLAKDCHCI
On the procedure:
(§1) Rabbit anti-mouse IgGs (GE Healthcare) were immobilized on carboxymethylated dextran CM4 sensor chips (GE Healthcare) by amine coupling, according to a standard protocol. Analyses were performed at 37° C. using PBS containing 0.05% surfactant P20 as running buffer. The antibodies were captured in individual flow cells at a flow rate of 10 μL/minute. Injection time was varied for each antibody to yield an Rmax between 30 and 60 RU. 250 μg/mL mouse Fc (Jackson ImmunoResearch, West Grove, Pa.) was injected at 30 μL/minute for 120 seconds to block non-specific binding of capture antibodies to mouse Fc portion of the recombinant GDF15 protein when needed. […] The dissociation phase was monitored for up to 1500 seconds. The surface was then regenerated with two 60-second injections of 10 mM Glycine-HCl, pH 1.7, at a flow rate of 30 μL/minute.
(§2) Kinetic parameters were determined using the kinetic function of the BIAevaluation software (GE Healthcare) with double reference subtraction.

Assay [2] concerns the target T2, untagged recombinant human GDF15 (rhGDF15 (Peprotech)) (human, UniProt Q99988 197-308, limits assumed).
T2 construct: Bought from Peprotech
T2 sequence (looked up): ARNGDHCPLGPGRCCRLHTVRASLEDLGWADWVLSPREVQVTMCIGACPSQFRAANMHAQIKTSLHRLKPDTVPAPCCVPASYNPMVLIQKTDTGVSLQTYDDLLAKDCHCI
On the procedure: as §1, §2

For assay [3], the target named is T3, mouse IgG1 Fc-mature human GDF15 fusion protein (mFc-rhGDF15) (mouse; human).
T3 construct: Made in CHOK1SV cells, purified by Protein A and size exclusion; also called mouse Fc fused to human GDF15
T3 chain: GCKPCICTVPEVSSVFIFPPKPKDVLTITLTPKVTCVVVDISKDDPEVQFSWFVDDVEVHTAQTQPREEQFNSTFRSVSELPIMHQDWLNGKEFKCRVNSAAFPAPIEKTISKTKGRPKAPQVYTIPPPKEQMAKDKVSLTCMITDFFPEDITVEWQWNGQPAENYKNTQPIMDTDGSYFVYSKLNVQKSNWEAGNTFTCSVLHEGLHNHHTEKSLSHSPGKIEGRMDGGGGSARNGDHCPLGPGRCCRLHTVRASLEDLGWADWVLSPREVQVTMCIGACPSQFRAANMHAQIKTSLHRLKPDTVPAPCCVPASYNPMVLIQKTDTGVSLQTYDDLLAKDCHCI
The protocol: as §1, §2

Assay [4] addresses T4, cleaved-rhGDF15 (human, UniProt Q99988 197-308).
T4 sequence: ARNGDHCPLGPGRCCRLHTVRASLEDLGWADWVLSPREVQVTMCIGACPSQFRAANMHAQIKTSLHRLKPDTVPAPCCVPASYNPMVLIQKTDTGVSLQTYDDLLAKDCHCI
On the procedure: as §1, §2

B1: 06C11 (antibody, mouse IgG1, kappa)
heavy: QVTLKESGPGILQPSQTLSLTCSFSGFSLNTYGMGVSWIRQPSGKGLEWLAHIYWDDDKRYNPSLKSRLTISKDASNNRVFLKITSVDTADTATYYCAQRGYDDYWGYWGQGTLVTISAAKTTPPSVYPLAPGSAAQTNSMVTLGCLVKGYFPEPVTVTWNSGSLSSGVHTFPAVLQSDLYTLSSSVTVPSSTWPSETVTCNVAHPASSTKVDKKIVPRDCGCKPCICTVPEVSSVFIFPPKPKDVLTITLTPKVTCVVVDISKDDPEVQFSWFVDDVEVHTAQTQPREEQFNSTFRSVSELPIMHQDWLNGKEFKCRVNSAAFPAPIEKTISKTKGRPKAPQVYTIPPPKEQMAKDKVSLTCMITDFFPEDITVEWQWNGQPAENYKNTQPIMDTDGSYFVYSKLNVQKSNWEAGNTFTCSVLHEGLHNHHTEKSLSHSPGK
light: DIVMTQSQKFMSTSVGDRVSVTCKASQNVGTNVAWFQQKPGQSPKALIYSASYRYSGVPDRFTGSGSGTDFILTISNVQSEDLAEYFCQQYNNYPLTFGAGTKLELKRADAAPTVSIFPPSSEQLTSGGASVVCFLNNFYPKDINVKWKIDGSERQNGVLNSWTDQDSKDSTYSMSSTLTLTKDEYERHNSYTCEATHKTSTSPIVKSFNRNEC
notes: Murine monoclonal from hybridoma, IgG1 kappa; also called antibody 06C11
For the molecule B1, the equilibrium dissociation constant (Kd) in assay [1] worked out at 0.051 nM; in assay [2], 0.21 nM; in assay [3], 0.17 nM; in assay [4] it was 0.17 nM. Moreover, the koff in assay [1] worked out at 0.0015 s⁻¹; in assay [2], 0.0046 s⁻¹; in assay [3], 0.00068 s⁻¹; in assay [4] it was 0.002 s⁻¹. Further, the kon in assay [1] came out at 2.9e+07 M⁻¹ s⁻¹; in assay [2] it was 2.2e+07 M⁻¹ s⁻¹; in assay [3], 4.5e+06 M⁻¹ s⁻¹; in assay [4], 1.2e+07 M⁻¹ s⁻¹.

B2: 14F11 (antibody, mouse IgG1, kappa)
heavy: QVTLKESGPGILQPSQTLSLTCSFSGFSLSTYGMGVGWIRQPSGKGLEWLADIWWDDDKYYNPSLKSRLTISKDTSSNEVFLKIAIVDTADTATYYCARRGHYSAMDYWGQGTSVTVSSAKTTPPSVYPLAPGSAAQTNSMVTLGCLVKGYFPEPVTVTWNSGSLSSGVHTFPAVLQSDLYTLSSSVTVPSSTWPSETVTCNVAHPASSTKVDKKIVPRDCGCKPCICTVPEVSSVFIFPPKPKDVLTITLTPKVTCVVVDISKDDPEVQFSWFVDDVEVHTAQTQPREEQFNSTFRSVSELPIMHQDWLNGKEFKCRVNSAAFPAPIEKTISKTKGRPKAPQVYTIPPPKEQMAKDKVSLTCMITDFFPEDITVEWQWNGQPAENYKNTQPIMDTDGSYFVYSKLNVQKSNWEAGNTFTCSVLHEGLHNHHTEKSLSHSPGK
light: DIVMTQSQKFMSTSVGDRVSVTCKASQNVGTNVAWYQQKPGQSPKALIYSPSYRYSGVPDRFTGSGSGTDFTLTISNVQSEDLAEYFCQQYNSYPHTFGGGTKLEMKRADAAPTVSIFPPSSEQLTSGGASVVCFLNNFYPKDINVKWKIDGSERQNGVLNSWTDQDSKDSTYSMSSTLTLTKDEYERHNSYTCEATHKTSTSPIVKSFNRNEC
notes: Murine monoclonal from hybridoma, IgG1 kappa; also called antibody 14F11
Take B2: the dissociation constant (Kd) stood at 0.096 nM in assay [1], 0.071 nM in assay [2], 0.22 nM in assay [3] and 0.11 nM in assay [4]. The off-rate constant (koff) in assay [1] stood at 0.00042 s⁻¹; in assay [2], 0.0022 s⁻¹; in assay [3] it was 0.00033 s⁻¹; in assay [4] it was 0.0006 s⁻¹. Further, the on-rate constant (kon) amounted to 4.4e+06 M⁻¹ s⁻¹ in assay [1], 3.1e+07 M⁻¹ s⁻¹ in assay [2], 1.7e+06 M⁻¹ s⁻¹ in assay [3] and 5.7e+06 M⁻¹ s⁻¹ in assay [4].

The Kd is the constant that tells how readily two partners part at equilibrium. Usually koff stands for the rate constant with which the complex falls apart. By kon is commonly meant the rate constant with which the complex forms.
